From the nanobody polyreactivity screen of Harvey et al. (2022) come the findings set out here.

A short description of this data set: yeast display, Sf9 membrane polyspecificity reagent, FACS + sequencing; frameworks hold sequencing errors. In a few lines:
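Using colony PCR, genes from sorted yeast display clones were amplified, then sequenced on MiSeq at 2 × 250 and filtered by CDR length. The clones had been stained with 10% biotinylated, detergent-solubilized Sf9 membrane reagent for 1 hour at 4 °C and sorted by FACS into low and high (top ~1%) gates on anti-HA and streptavidin fluorescence. Polyreactivity labels come from the gate of origin.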
Take “QVQLVESGGGLVQAGGSLRLSCAASGSTFSTYAMGWDRQAPGKERELVAAIRWSGGSTYYADSVKGRFTISRDNAKNTVYLQMNSLKPEDTAVYNCNAGASYFLVISQSRRDYWGQGTEVTVSS”: the “polyreactivity (PSR sort gate)” value is given as “low polyreactivity”.
In the case of “QVQLVESGGGLVQAGGSLRLSCAASGSIFVQYAMGWYRQAPGKERELVAGITISGGRTYYADSVKGRFTISRDNAKNTVYLLMNSLKPEDTAVYYSNADVTRASSRYNSWGHGTQVTVSS”, the “polyreactivity (PSR sort gate)” value was “low polyreactivity”.
As for “QVQLVESGGGLVQAGGSLRLSRAASGSIFDDYAMGWYRQAPGKERELVAAITSGGSTYYADSVKGRFTMSRDNAKNTVYLQRNSLKPEDTAVYYRATRYHWSSSFAPVGAYGYWGQGTQVTVSP”, the “polyreactivity (PSR sort gate)” value is “low polyreactivity”.
As to “QVQLVESGGGLVQAGGRLSLSCAASGSTLWGYAMGWYRQAPGKERELVATINQSAGSTYYADSVKGRFTISRDHAKNSVYLQMHSLKPEVTAVYYCAAEALVQFSYDYWGQGTQVTVSS”, the “polyreactivity (PSR sort gate)” value was “low polyreactivity”.
As to “QVQLVESGGGLVQAGGSLRLSCAASGLIFYWNTMGWYRQAPGKERELVAYISGGGGRTYYADSVKGRFTISRDNAKNTVYLQMNSLKPEDTAVYYCAAKLYGYRSGYYYWGQGTQVTVSS”, the “polyreactivity (PSR sort gate)” value is reported as “high polyreactivity”.
As for “QVQLVESGGGLVQAGGSLRLSCAASGSIFDYYAMGWYRQAPGKERELVATISGGGGTTYYADSVKGRFTISRDNAKNTVYLQMNSLKPEDTAVYYCAAVSLGYNYWGQGTQVTVSS”, the “polyreactivity (PSR sort gate)” value was “low polyreactivity”.
As to “QVQLVESGGGLVQAGGSLRLSSAASGSTFRGNAMGWYRQAPGKERELVAAITGRGGRTYYADSVKGRFTISRDNAKNTVYLQMNSLKPEDTAVYYCAAYSRYKPYGITAYDYWGLGTQVTVSS”, the “polyreactivity (PSR sort gate)” value was “high polyreactivity”.
Regarding “QVQLVESGGGLVQAGGSLRLSCAASGRIFRYYAMGWYRQAPGKERELVAAISDSSGSTYYADSVKGRFTISRDNAKNSVYLQMNCLKPEDTAVYYCRYYFGSGYYYWGEGTQVTVSS”, the “polyreactivity (PSR sort gate)” value is listed as “high polyreactivity”.
Take “QVQLVESGGGLVQAGGSLRLSCAASGRTFARNPMGWYRHAPGKERELVASIRWRGGSTYYADSVKGRFTISRDNAKNTVYLQMNRLKPEDTAVYYCATRYPYYVGRGYISYDYWGQGTQVTVSS”: the “polyreactivity (PSR sort gate)” value is listed as “high polyreactivity”.
With “QVHLVESGGGLVQAGGSLRLSCAASGRIFARYAMGWYRQAPGKEREFVASISFRGGSTYYADSVKGRFTISRDNAKNTVYLQMNSLKPEDTAVYYCAAEGYTRAYSGFYWYDYWGQGTQVTVSS”, the “polyreactivity (PSR sort gate)” value is recorded as “high polyreactivity”.
For “QVQLVESGGGIVQAGGSLRLSCADSGFTFAFYAMGRYRQAPRKERELVAAISSGGGNTYYADSVKGRFTISRDNAKNTVYLQMNSLNPEDTAVYYCATRYISQGGYWGQGTQVTVSS”, the “polyreactivity (PSR sort gate)” value is “high polyreactivity”.
As to “QVQLVESVGGLVQAGGSLRLSCAASGFILAVYVLGWYRQAPGKERELVAAISWSGGSTYYADSLKGRFTISRDNAKNTVYFKMNRLKPEYTAVYSCNTVAKSPVKYDYWGQGTQVTVSS”, the “polyreactivity (PSR sort gate)” value was “high polyreactivity”.
As to “QVQLVESGGGLVQAGGSLRLSCAAYGRTFGLYAMGWYRQAPGKERELVAAISWGGGRTYYADSVKGRFTISRDNAKHTVYLQMNSLKPEDTAVFYCNAVYSPRYYVGGYDYWGQGTQVTVSS”, the “polyreactivity (PSR sort gate)” value is “high polyreactivity”.
As for “QVQLVESGGGLDQAGGSLRLSCAASGLIFLVNAMGWYRQPPWKERDLVAAIDLDGGITYADSVKGRFTISRDNAKNTVYLQMNSLKPEDTAVYYCAADPSSYGRFTYDYWGQGTQVTVSS”, the “polyreactivity (PSR sort gate)” value is on record as “low polyreactivity”.
With “QVQLVESGGGLVQAGGSLRLSCAASGYIFIFYAMGWYRQAPGKDRELVAAITDSGGSTYYADSVKGRFTISRDNAQNTVYLQKNSLKPEDTAVYYCADPYYFYRDRYRLDYWGQGTQVTVSS”, the “polyreactivity (PSR sort gate)” value is recorded as “low polyreactivity”.
Take “QVQLVESVGGLVQAGGSLRLSCAASGRIFQYYAMGWYRQAPGKERELVAAITRSGGRTYYADSVKGRFTISRDNAKNTVYLQMNSLKPEDTAVYYCAARDWYYTMYYWGQGTQVTVSS”: the “polyreactivity (PSR sort gate)” value is reported as “high polyreactivity”.
For the sequence “QVQLVESGGGLVQAGGSLRLSCAASGRTFQYNAMGWYRQAPGKERELVAAISWSDGITYYADSVKGSFTISRDNAKNTVYLQMNSLKPEDTAVYYCAAEGYGLSYYFPYDFWGQGTQVTVSS”, the “polyreactivity (PSR sort gate)” value is reported as “high polyreactivity”.
The same measure for “QVQLVESGGGLVQAGGSLRLSCAASGRIFTINAMGWYRQAPGKDRELVAAITGSAASTYYADSVKGRFTISRDNAKNTVYLQMYSLKPEDTAVYYSNARPAGRGYNYWGQGTQVTVSS”: “high polyreactivity”.
Turning to “QVQLVESGGGLVQAGGSLRLSCAASGSILSWYAMGWYRQAPGKERELVAAITGAGSTNYADSVKGRFTISRDNAKNTVYLQMNSLKPEDTAVYYCAADGSPWSWYSDGYWGQGTQVTVSS”, the “polyreactivity (PSR sort gate)” value was “low polyreactivity”.
With “QVQLVESGGGLVQAGGSLRLSCAASGTFVYYAMGWYRQAPGKERELVAVISLNGGITYYADSVKGRFTISRDNAKNTVYLQMNSLKPEDTAVYYCNAQFYNSGWSFKSYYWGHGTQVTVSS”, the “polyreactivity (PSR sort gate)” value is on record as “low polyreactivity”.
With “QVQLVESGGGLVQSGGSLRLSCAASGRIIKSYAMGRYRQAPGKERELVAAISRSGGRTYYADSVKGRFSISRDNAKNTVYLQMISLKPEDTAVYYCAATTFVAPSWGQGTQVTVSS” the entry was “low polyreactivity”; with “QVQLVESGGGLVQAGGSLRLSCASSGLIFYHYAMGWYRQAPGKERELVAAISWRGGTTYYADSVKGRFTISSDNAKNTVYLQMNSLKPEDTAVYYCNALLRSPGLGYDYWGQGTQVTVSS”, “high polyreactivity”.
As for “LVQLVESGGGVVQAGGSLRLSSAASGSIFRNNTMGWYRQAPGKERELVAAISGRGTRTSYADSVKGRFTISRDNAKNTVYLQMNSLKPEDTAVYYCAARSWYLYYWGQGTQVTVSS”, the “polyreactivity (PSR sort gate)” value is reported as “low polyreactivity”.
As for “QVQLVESGGGLVQAGGSLRLSCAAYVRIIYDYAKGWYRQAPGKERELVAAISKGGGSTYYADSVKGRFTISRDNAKNTVYLQMNSLNPEDTAVYYCAASTSHTTDTRYDYLGQGTQVTVSS”, the “polyreactivity (PSR sort gate)” value is “low polyreactivity”.
As for “QVQLVESGGGLVQAGGSLRISCAASGITFPVYTMGWYRQAPGKERELVAAITSSGGSTYYADSVKGRFTISRDNAKNTVYLQMNSLKPEDTAVYYCAARDYGRHHTYGYWGQGTQVTVSS”, the “polyreactivity (PSR sort gate)” value is on record as “high polyreactivity”.
“QLQLVESGGGLVQAGGSLRLSCAASGLIFTYYAMGWYRQAPGKERELVAAISGRGGSTYYADSVKGRFTISRDSAMKTVYLQMNSLNPEDTAVYYCAAVRWAGYVSDYGYWGQGTQVTVSS”: the “polyreactivity (PSR sort gate)” value is listed as “high polyreactivity”.
On to “QVQLVESGGGLVQAGGSLRLSCAASGYTIRYYAMGWYRQAPGKERDLVAAISSSGGNTYYADSVKGRFTISSDNAKNTVYLQMNSLKPEDTAVYYCAAAYHPYHRVTGHDGGYDYWGQGTQVTVSS”, for which the “polyreactivity (PSR sort gate)” value is given as “low polyreactivity”.
As for “QVQLVESGGGLVQAGGSLRLSCAASRITFRFYAMGWSRQAPGKERELVAVISRGGGTTYYADSVKGRFTISRDNAKNTVYLQMNSLKPEDTAVYYCNAVIAWYRSDEYDYWGQGTQVTVSS”, the “polyreactivity (PSR sort gate)” value is reported as “high polyreactivity”.
For the sequence “QVQLVESGGGLVQAGGSLRLSCAASGSIFNRYAMGWYRQAPGKERELVAAIRSGDNTNYADSVKGRFTISRDNAKNTVYLQMNSLKPEDTAVYYCNARYGGYRARYTYNYWGQGTQVTVSS”, the “polyreactivity (PSR sort gate)” value is “high polyreactivity”.
Turning to “QVQLVESGGGLVQAGGSLGLSSAASGIIFLTYAMGWYSQAPGKDRELVAAINSTGSTNYADSVKGRFTISRDNAKNTVYLQMNSLTPEDTAVYYCAAEGLPYVRVFDFVSRYDYWGQGTQVNVSS”, the “polyreactivity (PSR sort gate)” value is reported as “low polyreactivity”.
Regarding “QVQLVESGGGLVQAGGSLRLSCAASGSTFRYYAMGWYRQAPGKERELVAAITWGGGNTYYADSVKGRFTISRDNAKNTVYLQMNSLKPEDTAVYYCNKVQSHWLDSWGQGTQVTVSS”, the “polyreactivity (PSR sort gate)” value was “low polyreactivity”.
“QVQLVESGGGLVQAGGSLRLSCAASGSTFDYYAMGWYRPAPGKERELVAAISRRGGGTYYADSVKGRFTISRDNAKNTVYLQMNSLKPEDTAVYYCAKAVKYPTKALAVGYWGQGTQVTVSS”: the “polyreactivity (PSR sort gate)” value is “high polyreactivity”.
For the sequence “QVQLVESGGGLVQAGGSLRLSCAASGLIFYRNAMGWYRQAPGKERELVAAIRFSTGSTYYADSVKGRFTISRDNAKNTVYLEMNSLKPEDTAVYYCAAALPGYGDYYYWGQGTQVTVSS”, the “polyreactivity (PSR sort gate)” value is reported as “high polyreactivity”.
As for “QDQLVESGGGLVQAGGSLRLSCAASGFIFALYAMGWYRQAPGKERELVAAINWSGGRTYYADSVKGRFTISRDNAKNTVYLQMNSLKPEDTAVYYCNRRAFSPYAANYYYWGQGTQVTVSS”, the “polyreactivity (PSR sort gate)” value is on record as “high polyreactivity”.
Take “QVQLVESGGGLVQAGGSLRLSCAASGSTFGRYVMGWYRQAPGKERELVAAISKNAGSTYYADSVKGRFTISRDNAKNTVYLQMNSLKPEDTAVYYCAADWRTKGYDSLGQGTQVTVSS”: the “polyreactivity (PSR sort gate)” value is “high polyreactivity”.
Turning to “QVQLVESGGGLVQAGGSLRLSCAASGITFTGYDMGWYRQAPGIERELVADISNGSSTDYADSVKGRFTISRDNAKKTVYLQMNSLNPEDTAVYYCAVDIDNWSEYDYWGQGTQVTVSS”, the “polyreactivity (PSR sort gate)” value was “low polyreactivity”.
With “QVQLVESGGGLVQAVGSLRLSCAASGFIFSYYAMGWYRQAPGKERELVAAISRSGSITYYADSVKGRFTISRDNAKNTVYLQMNRLKPEDTAVYYCAARYWRRGSSGRLNYWGQGTQVTVSS” the entry was “high polyreactivity”.
Regarding “QVQLVESGGGLVQAGGSLRLSCAASGFTFHPNAMGWYRPAPGKERELVAAISTRGGSTAYADSVKGRFTISRDNAKNTVYLLMNSLKPEDTAVYYCAARTSSTKYYYWGQGTQVTVSS”, the “polyreactivity (PSR sort gate)” value is listed as “high polyreactivity”.
With “QVQLVESGGGLVQAGGSLRLSCAASGRTFVHYTMGWYRQTPGKDRELVAAISGTGTSTYYADSVKGRFTISRDNAKNTVYLQMNSLKPEDTAVYYCARDPYFGFHIGYPRRDYWGQGTQVTVSS”, the “polyreactivity (PSR sort gate)” value is on record as “low polyreactivity”.
As to “QVQLVESGRGLVPAGGSLRLSCAASGSIFTDYAMGWSRKAPGKERELVATITWSDASTYYTDSVKGRFTISRDNAKNTVYLQMNSLKPEDTAVYYFARRSRYSKGYDYWGQGTQVTVSS”, the “polyreactivity (PSR sort gate)” value was “low polyreactivity”.
With “QVQLVESGGGLVQAGGSLRLSCAASGRIFWTYAMGWYSQAPGKERELVASITWSGGSTYYADSVKGRFTISRDNAKNTFYLQMNSLKPEDTAVYYCKTDVLAPYDSGYWGQGTQVTVSS”, the “polyreactivity (PSR sort gate)” value is on record as “low polyreactivity”.
